According to paper PMC5869396 (Toxins, 2018):

Key:
[1] = target: T1, recombinant Shiga toxin-2a B subunit (rStx2aB), C-terminal 6xHis tag (Escherichia coli O157:H7 EDL933 …); experiment: crystal structure; conditions: both partners purified
T1 construct: source: E. coli BL21 (pET22b), periplasmic extract, purified (IMAC, SEC); not shown: His6, C-terminal, kept

[2] = target: T2, Stx2a holotoxin (Stx2a A subunit with the Stx2a B pentamer) (Escherichia coli, Stx2a strain not …, UniProt P09385;P09386); experiment: pull-down; conditions: one partner purified
T2 construct: copies: 1 + 5

B1: Nb113 (expressed from pMECS, C-terminal HA and His6 tags) (VHH)
VHH: QVQLQESGGGLVQPGGSLRLSCAASGFTFSSYYMSWVRQAPGKGPEWVSGINTGGVGTRYADSVKGRFTISRDNAKNTLYLQMNSLKPEDTALYYCAIGEGGNRNYWGQGTQVTVSS
notes: source: E. coli WK6 (pMECS), periplasmic extract, purified (IMAC, SEC)
B1 was tested, and the “stoichiometry N” value [1] was 5 per pentamer.

B2: monovalent Nb113 (expressed from pHEN6c, His6 tag, without the HA tag) (VHH)
VHH: QVQLQESGGGLVQPGGSLRLSCAASGFTFSSYYMSWVRQAPGKGPEWVSGINTGGVGTRYADSVKGRFTISRDNAKNTLYLQMNSLKPEDTALYYCAIGEGGNRNYWGQGTQVTVSS
notes: also called Nb113 monovalent; monomeric Nb113; source: E. coli WK6 (pHEN6c), purified (IMAC, SEC)
B2: binds [2].
